For assay [1], the target named is Gaboon viper virus 1 (GaVV-1) phosphoprotein oligomerisation domain (POD), residues 67 to 178 (Gaboon viper virus 1 (GaVV-1)). As to the kind of experiment: crystal structure.
The target is the same in assay [2]. As to the kind of experiment: SEC-SAXS. In general terms: In gel filtration, larger molecules generally elute earlier.
The target of assay [3] is Munia bornavirus 1 (MuBV-1) phosphoprotein oligomerisation domain (POD), residues 65 to 172 (munia bornavirus 1 (MuBV-1)). The assay can be described thus: crystal structure.
Assay [4] shares this target. As to the kind of experiment: SEC-SAXS.

A word on the stoichiometry N: it is the number of molecules, sites or subunits per partner or assembly. In the case of “Gaboon viper virus 1 (GaVV-1) phosphoprotein oligomerisation domain (POD), residues 67 to 178 (domain or fragment)”, the stoichiometry N in assay [1] and in assay [2] was 4 throughout.
As for “Munia bornavirus 1 (MuBV-1) phosphoprotein oligomerisation domain (POD), residues 65 to 172 (domain or fragment)”, the stoichiometry N in assay [3] and in assay [4] was 4 throughout.
